Here are results for four substances from patent US20250042970A1.

The term EC50 denotes the concentration at which the effect is half-maximal. Read a low EC50 as higher potency in that assay. For orientation: IC50 means the point on the concentration scale where inhibition reaches its midpoint. Read a low IC50 as greater potency. As a reminder, the Kd is the equilibrium constant for the complex coming apart.

Read-outs that look alike come from different tables or passages of the source.

In experiment [1] the target is T1, syndecan-1.
T1 sequence (P18827 whole entry, species assumed, looked up): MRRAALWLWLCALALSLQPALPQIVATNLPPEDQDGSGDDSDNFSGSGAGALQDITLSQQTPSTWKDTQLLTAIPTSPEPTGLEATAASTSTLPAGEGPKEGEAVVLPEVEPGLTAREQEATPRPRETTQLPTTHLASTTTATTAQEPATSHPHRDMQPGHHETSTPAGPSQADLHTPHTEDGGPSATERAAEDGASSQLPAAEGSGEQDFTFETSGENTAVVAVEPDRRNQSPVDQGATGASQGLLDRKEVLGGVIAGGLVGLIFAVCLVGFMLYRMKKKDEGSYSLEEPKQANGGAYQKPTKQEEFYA
As to the kind of experiment: colorimetric ELISA, binding curve (450 nm against LogM) on syndecan-1; curve rises to about 0.7 at LogM about -6.7, no plateau.

For experiment [2], the target named is human BAFF (Examples 21-23) (human) (UniProt Q9Y275). The experiment is described as follows: colorimetric ELISA, inhibition curve (450 nm against LogM of the fusion protein) for human BAFF; the partner on the plate not given. (In general: In an ELISA, binding on a coated surface is turned into a signal by an enzyme label.)
In experiment [3] the target is human APRIL (Examples 21-23) (human) (UniProt O75888). The experiment is described as follows: colorimetric ELISA, inhibition curve (450 nm against LogM of the fusion protein) for human APRIL; the partner on the plate not given.
Sequence of human APRIL (Examples 21-23) (human) (O75888 105-250 limits assumed): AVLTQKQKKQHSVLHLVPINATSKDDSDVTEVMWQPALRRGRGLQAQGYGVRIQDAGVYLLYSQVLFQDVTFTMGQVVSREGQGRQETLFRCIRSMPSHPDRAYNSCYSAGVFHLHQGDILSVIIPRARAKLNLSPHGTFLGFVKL
Experiment [4] deals with human BAFF-60mer (Adipogen) (human) (UniProt Q9Y275). As to the kind of experiment: cell-based or functional assay.
Experiment [5] has as its target human APRIL (Acros Biosystems) (human) (UniProt O75888). As to the kind of experiment: cell-based or functional assay.
The target of experiment [6] is human BAFF (Acros Biosystems) (human) (UniProt Q9Y275). As to the kind of experiment: cell-based or functional assay.
For experiment [7], the target named is murine APRIL (Examples 22-23) (mouse) (UniProt Q9D777). The experiment is described as follows: colorimetric ELISA, inhibition curve (450 nm against logM of the fusion protein) for mouse APRIL; the partner on the plate not given.
Sequence of murine APRIL (Examples 22-23) (mouse) (Q9D777 96-241 limits assumed): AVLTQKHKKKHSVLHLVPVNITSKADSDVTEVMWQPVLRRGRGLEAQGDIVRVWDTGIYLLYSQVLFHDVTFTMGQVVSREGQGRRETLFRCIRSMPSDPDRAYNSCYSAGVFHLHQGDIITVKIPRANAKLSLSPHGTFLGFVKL
For experiment [8], the target named is murine BAFF (Examples 22-23) (mouse) (UniProt Q9WU72). The experiment is described as follows: colorimetric ELISA, inhibition curve (450 nm against logM of the fusion protein) for mouse BAFF; the partner on the plate not given.
Sequence of murine BAFF (Examples 22-23) (mouse) (Q9WU72 127-309 limits assumed): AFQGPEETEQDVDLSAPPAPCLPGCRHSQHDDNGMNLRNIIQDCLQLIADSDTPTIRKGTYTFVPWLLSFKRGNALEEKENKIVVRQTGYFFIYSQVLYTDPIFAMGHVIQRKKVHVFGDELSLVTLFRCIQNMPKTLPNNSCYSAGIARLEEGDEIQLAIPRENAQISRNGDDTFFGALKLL
Experiment [9] has as its target human APRIL (Examples 21-23) (human) (UniProt O75888). The experiment is described as follows: SPR (Carterra LSA, HC30M chip).
The target of experiment [10] is murine APRIL (Examples 22-23) (mouse) (UniProt Q9D777). As to the kind of experiment: SPR (Carterra LSA, HC30M chip).
Experiment [11] has as its target human BAFF (Examples 21-23) (human) (UniProt Q9Y275). As to the kind of experiment: SPR (Carterra LSA, HC30M chip).
The target of experiment [12] is murine BAFF (Examples 22-23) (mouse) (UniProt Q9WU72). As to the kind of experiment: SPR (Carterra LSA, HC30M chip).
Experiment [13] concerns the target syndecan-2. The experiment is described as follows: colorimetric ELISA, binding curve (450 nm against LogM) on syndecan-2; curve rises to about 1.1 at LogM about -6.7, no plateau.
Sequence of syndecan-2 (P34741 whole entry): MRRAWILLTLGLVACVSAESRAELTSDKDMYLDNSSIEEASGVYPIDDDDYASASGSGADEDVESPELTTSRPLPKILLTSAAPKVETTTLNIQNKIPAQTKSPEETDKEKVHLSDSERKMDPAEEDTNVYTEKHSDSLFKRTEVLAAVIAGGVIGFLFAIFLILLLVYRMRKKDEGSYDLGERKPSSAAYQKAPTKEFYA
In experiment [14] the target is human APRIL (Examples 21-23) (human) (UniProt O75888). The experiment is described as follows: assay not given (Example 21).
The target of experiment [15] is human BAFF (Examples 21-23) (human) (UniProt Q9Y275). As to the kind of experiment: assay not given (Example 21).
For experiment [16], the target named is syndecan-2. As to the kind of experiment: colorimetric ELISA, binding curve (450 nm against LogM) on syndecan-2; curve rises to about 2.4 at LogM about -6.7, no plateau.
In experiment [17] the target is T1, syndecan-1. As to the kind of experiment: colorimetric ELISA, binding curve (450 nm against LogM) on syndecan-1; curve rises to about 1.8 at LogM about -6.7, no plateau.
Experiment [18] has as its target FLAG-tagged human BAFF (human) (UniProt Q9Y275). The experiment is described as follows: BIACORE SPR.
Experiment [19] concerns the target 6HIS-tagged murine BAFF (mouse) (UniProt Q9WU72). The experiment is described as follows: BIACORE SPR. Background: Surface plasmon resonance follows binding to a sensor surface in real time, without labels.
Experiment [20] concerns the target FLAG-tagged murine megaAPRIL (mouse) (UniProt Q9D777). The experiment is described as follows: BIACORE SPR.
The target of experiment [21] is FLAG-tagged cynomolgous APRIL (cynomolgus monkey). As to the kind of experiment: BIACORE SPR.
Sequence of FLAG-tagged cynomolgous APRIL (cynomolgus monkey) (A0ACM8 entry or part of it limits assumed): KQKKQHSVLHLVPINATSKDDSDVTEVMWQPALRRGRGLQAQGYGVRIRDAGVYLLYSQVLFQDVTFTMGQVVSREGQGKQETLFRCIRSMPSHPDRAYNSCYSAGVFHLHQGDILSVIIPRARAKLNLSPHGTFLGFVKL
A further experiment deals with membrane-huBAFF (human) (UniProt Q9Y275).
Experiment [22] has as its target FLAG-tagged human BAFF (human) (UniProt Q9Y275). As to the kind of experiment: KinExA. For orientation: Kinetic exclusion samples the free partner from a solution-phase mixture.
In experiment [23] the target is FLAG-tagged recombinant human APRIL (human) (UniProt O75888). The experiment is described as follows: KinExA.
Sequence of FLAG-tagged recombinant human APRIL (human) (O75888 105-250 limits assumed): as the sequence (O75888 105-250 limits assumed) above
Experiment [24] addresses soluble huBAFF (Example 12) (human) (UniProt Q9Y275).
Experiment [25] addresses FLAG-tagged human BAFF (human) (UniProt Q9Y275). As to the kind of experiment: BIACORE SPR; Table 3 experiment (BAv8-10 derivative series), control run.
Experiment [26] shares this target. The experiment is described as follows: KinExA. This is another data set of the same source.
Experiment [27] has the same target. As to the kind of experiment: BIACORE SPR. The source holds these as a separate data set.
The target of experiment [28] is FLAG-tagged cynomolgous APRIL (cynomolgus monkey). As to the kind of experiment: BIACORE SPR. The source holds these as a separate data set.

Sequence of human APRIL (Acros Biosystems) (human) (O75888 115-250 limits assumed): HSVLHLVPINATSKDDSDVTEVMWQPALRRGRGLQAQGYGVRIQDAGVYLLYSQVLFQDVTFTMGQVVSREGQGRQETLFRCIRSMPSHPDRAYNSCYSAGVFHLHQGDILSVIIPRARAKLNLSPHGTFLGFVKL
Sequence of RC18 (Telitacicept) (Fc fusion) (chain): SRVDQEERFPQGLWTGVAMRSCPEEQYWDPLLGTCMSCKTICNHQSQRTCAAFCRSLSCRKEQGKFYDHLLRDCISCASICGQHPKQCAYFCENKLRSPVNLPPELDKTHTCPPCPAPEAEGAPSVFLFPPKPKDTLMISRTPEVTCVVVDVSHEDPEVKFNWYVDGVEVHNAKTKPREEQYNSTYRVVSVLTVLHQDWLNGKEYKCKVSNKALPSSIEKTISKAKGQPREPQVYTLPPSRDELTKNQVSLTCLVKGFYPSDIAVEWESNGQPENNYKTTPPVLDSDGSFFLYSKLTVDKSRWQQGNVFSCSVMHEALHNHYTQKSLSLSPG
Sequence of 6HIS-tagged murine BAFF (mouse) (Q9WU72 127-309 limits assumed): as the sequence (Q9WU72 127-309 limits assumed) above

For Atacicept (Fc fusion), the EC50 amounted to 120 nM with syndecan-1 [1] and 5400 nM with syndecan-2 [13]. In addition, the IC50 in experiment [2] worked out at 6.8 nM; in [3], 3.6 nM; in [7], 212 nM; in experiment [8], 31 nM. The IC50 for proliferation of stimulated B cells, Donor 1, BAFF-60mer + anti-IgM in experiment [4] was 2.06 nM. In addition, in [4], the IC50 for proliferation of stimulated B cells, Donor 2, BAFF-60mer + anti-IgM is 0.683 nM. In addition, in experiment [4], the IC50 for proliferation of stimulated B cells, Donor 3, BAFF-60mer + anti-IgM was 1.13 nM. For the same substance, in experiment [5], the IC50 for proliferation of stimulated B cells, Donor 1, APRIL + anti-IgM worked out at 3 nM. For the same substance, the IC50 for proliferation of stimulated B cells, Donor 2, APRIL + anti-IgM in experiment [5] came to 0.01 pM. The IC50 for proliferation of stimulated B cells, Donor 3, APRIL + anti-IgM in [5] was 2.15 nM. For the same substance, the IC50 for proliferation of stimulated B cells, Donor 1, BAFF + anti-IgM in experiment [6] was 0.64 nM. Also, the IC50 for proliferation of stimulated B cells, Donor 2, BAFF + anti-IgM in [6] is 0.0985 nM. Also, the IC50 for proliferation of stimulated B cells, Donor 3, BAFF + anti-IgM in experiment [6] came out at 0.379 nM. Further, the Kd in experiment [9] was 0.067 nM; in experiment [10], 0.13 nM; in experiment [11] it was 0.919 nM; in experiment [12], 0.532 nM; in experiment [14], 0.13 nM; in experiment [15] it was 0.15 nM.
As for RC18 (Telitacicept) (Fc fusion), the IC50 in [2] was 12.4 nM. Moreover, in experiment [3], the IC50 was 6.7 nM. Also, in [4], the IC50 for proliferation of stimulated B cells, Donor 1, BAFF-60mer + anti-IgM turned out to be 2.37 nM; the IC50 for proliferation of stimulated B cells, Donor 2, BAFF-60mer + anti-IgM worked out at 0.818 nM; the IC50 for proliferation of stimulated B cells, Donor 3, BAFF-60mer + anti-IgM came to 1.97 nM. In [5], the IC50 for proliferation of stimulated B cells, Donor 1, APRIL + anti-IgM came out at 2.51 nM; the IC50 for proliferation of stimulated B cells, Donor 2, APRIL + anti-IgM is 573 pM; the IC50 for proliferation of stimulated B cells, Donor 3, APRIL + anti-IgM came out at 4.14 nM. In [6], the IC50 for proliferation of stimulated B cells, Donor 1, BAFF + anti-IgM came out at 1.98 nM; the IC50 for proliferation of stimulated B cells, Donor 2, BAFF + anti-IgM stood at 0.295 nM; the IC50 for proliferation of stimulated B cells, Donor 3, BAFF + anti-IgM amounted to 1.05 nM. In addition, the IC50 in experiment [7] was 236 nM. The same substance gave an IC50 in experiment [8] of 39 nM. In addition, the EC50 with syndecan-2 [16] worked out at 70 nM. In experiment [9], the Kd is 0.082 nM. Besides, in [11], the Kd was 0.616 nM. This substance also returned a Kd in [12] of 0.0023 nM. In the experiment with syndecan-1 [17], the EC50 worked out at 160 nM.
Regarding “Z-TACI-Ig fusion protein (from UniProt O14836 30-110) (Fc fusion)”, the Kd in experiment [18] stood at 0.0745 nM; in [19], 0.229 nM; in [20], 0.421 nM; in experiment [21], 1.21 nM; in experiment [22], 0.151 nM; in experiment [23] it was 0.131 nM. The fold improvement KD vs control amounted to 1.6 fold in experiment [18] and 0.01 fold in experiment [21]. In addition, the IC50 (read off the curve) (NFkappaB luciferase signal of HEK293-huBCMA reporter cells stimulated with HEK-293 cells expressing membrane huBAFF) in the experiment with membrane-huBAFF (human) stood at 5 nM. The substance further gave a Selectivity for huBAFF (KD APRIL/KD BAFF) in experiment [22] of 0.9. The fold improvement over control in experiment [22] amounted to 1.5 fold; in experiment [23], 0.001 fold. In [23], the Selectivity for huAPRIL (KD BAFF/KD APRIL) came out at 1.15. Moreover, in [24], the IC50 (read off the curve) (NFkappaB luciferase signal of HEK293-huBCMA reporter cells stimulated with soluble huBAFF) was 5 nM.
Turning to “[S40G]huBCMA ECD-Ig fusion protein (from UniProt Q02223 5-54) (Fc fusion)”, the Kd in experiment [25] is 0.173 nM; in experiment [18], 0.121 nM; in [19], 0.0669 nM; in experiment [20], 0.0216 nM; in experiment [21], 0.0151 nM; in [26], 0.226 nM. Further, the Kd in [28] was found to be 0.057 nM; in experiment [22], 0.226 nM; in experiment [23], 0.000159 nM. Further, the fold improvement KD vs control in experiment [18] and in experiment [21] was 1 fold each time. Moreover, the fold improvement over control in experiment [27], in experiment [28], in [22] and in experiment [23] was 1 fold each time. This substance also yielded a Selectivity for huBAFF (KD APRIL/KD BAFF) in experiment [22] of 0.0007. Besides, the Selectivity for huAPRIL (KD BAFF/KD APRIL) in experiment [23] came out at 1420. In experiment [24], this substance came in with an IC50 (read off the curve) (NFkappaB luciferase signal of HEK293-huBCMA reporter cells stimulated with soluble huBAFF) of 2 nM.
